Experimental data taken from US20100184636A1 (POSTECH ACADEMY INDUSTRY FOUNDATION, published 2010).

B1: HA-raptor^1020-1335 (other)
chain: NRNPGVPSVVKFHPFTPCIAVADKDSICFWDWEKGEKLDYFHNGNPRYTRVTAMEYLNGQDCSLLLTATDDGAIRVWKNFADLEKNPEMVTAWQGLSDMLPTTRGAGMVVDWEQETGLLMSSGDVRIVRIWDTDREMKVQDIPTGADSCVTSLSCDSHRSLIVAGLGDGSIRVYDRRMALSECRVMTYREHTAWVVKASLQKRPDGHIVSVSVNGDVRIFDPRMPESVNVLQIVKGLTALDIHPQADLIACGSVNQFTAIYNSSGELINNIKYYDGFMGQRVGAISCLAFHPHWPHLAVGSNDYYISVYSVEKRVR
notes: also called WD40 repeat region of raptor; not shown: HA tag
B2: PLD2^ΔN308 (enzyme)
chain: LAQGPGRDFLQLHRHDSYAPPRPGTLARWFVNGAGYFAAVADAILRAQEEIFITDWWLSPEVYLKRPAHSDDWRLDIMLKRKAEEGVRVSILLFKEVELALGINSGYSKRALMLLHPNIKVMRHPDQVTLWAHHEKLLVVDQVVAFLGGLDLAYGRWDDLHYRLTDLGDSSESAASQPPTPRPDSPATPDLSHNQFFWLGKDYSNLITKDWVQLDRPFEDFIDRETTPRMPWRDVGVVVHGLPARDLARHFIQRWNFTKTTKAKYKTPIYPYLLPKSTSTANQLPFTLPGGQCTTVQVLRSVDRWSAGTLENSILNAYLHTIRESQHFLYIENQFFISCSDGRTVLNKVGDEIVDRILKAHKQGWCYRVYVLLPLLPGFEGDISTGGGNSIQAILHFTYRTLCRGEYSILHRLKAAMGTAWRDYISICGLRTHGELGGHPVSELIYIHSKVLIADDRTVIIGSANINDRSLLGKRDSELAVLIEDTETEPSLMNGAEYQAGRFALSLRKHCFGVILGANTRPDLDLRDPICDDFFQLWQDMAESNANIYEQIFRCLPSNATRSLRTLREYVAVEPLATVSPPLARSELTQVQGHLVHFPLKFLEDESLLPPLGSKEGMIPLEVWT
notes: N-terminal 308 residues deleted, by analogy with ΔN184; also called ΔN308 PLD2

How the values were obtained:
[1] = target: T1, phospholipase D2, wild type (PLD2^wt) (Homo sapiens, UniProt O14939 1-933); test: co-IP with anti-HA antibody of HA-raptor constructs with PLD2^wt (FIG. 11)
T1 construct: also called recombinant PLD2; hPLD2
Procedure: (§1) After harvesting COS7 cells, total extracts were prepared by brief sonication in ice-cold lysis buffer (40 mM HEPES pH7.5, 120 mM NaCl, 1 mM EDTA, 10 mM pyrophosphate, 10 mM glycerophosphate, 50 mM NaF, 1.5 mM Na₃VO₄, 0.5% CHAPS, 1 mM PMSF, protease inhibitor cocktails). Clarified extracts were mixed with 2 μg of the respective antibodies. Then protein A-Sepharose beads were added to isolate the antibody complex. After four washings with lysis buffer, the final immunoprecipitates were washed once with wash buffer (50 mM HEPES pH7.5, 150 mM NaCl), and then subjected to SDS-PAGE using Hyperfilm (Amersham Pharmacia Biotech), nitrocellulose membranes (Watmann), Power supply (Amersham Pharmacia Biotech), Electrophoretic Transfer unit (Hoefer Scientific Instruments), and ECL™ (Amersham Pharmacia Biotech).

[2] = target: myc-mTOR^wt (human, UniProt P42345 1-2549); test: co-IP of myc-mTOR^wt with PLD2 fragments (FIG. 5)
Procedure: as §1

| Binder | binding result [1] | binding result [2] |
| --- | --- | --- |
| B1 | binds |  |
| B2 |  | no binding |
